From article PMC10901774, “Mirror-image ligand discovery enabled by single-shot fast-flow synthesis of D-proteins” (Nature Communications, 2024)

Details: pH 7.4
Experimental: For protein targets with no known binding partners and no available activity assays (ERG and IRAK2), we recorded circular dichroism (CD) spectra and compared them to recombinantly derived material.
ERG and IRAK2 Circular Dichroism
Before analysis, all proteins were exchanged into CD buffer (10 mM KP i, 5% glycerol v/v, pH 7.4).
Fast protein liquid chromatography (FPLC) purification was performed using GE Life Sciences
columns on an ÄKTA Pure FPLC system. The ÄKTA Pure, FPLC columns, and all buffers were
stored and subsequently used in a cold room maintained at 4 °C. HiTrap™ Desalting 5 mL: Before
desalting, the column was equilibrated with 20 mL of the CD buffer at 2 mL/min or until the
conductance reading from the ÄKTA Pure stabilizes, whichever is the greater volume. Up to 1.5
mL of sample was loaded into the column using a syringe fitted with a compatible male-end screw
tip, and then the loaded column was attached to the ÄKTA Pure. An isocratic flow of buffer (2 CV) […]
protein solution was determined with Method 1.6.1. […]
mg/mL with additions of CD buffer. All CD spectra were recorded on an AVIV Model 420 Circular […]
Before all readings, cuvettes were cleaned with Hellmanex™ 3 concentrate according to
manufacturer directions. Far circular dichroism spectra were recorded as the average of three […]
with 2 nm bandwidth and 8 second averaging time. Spectra were recorded between 0 and 110 […]

B1: Recombinant ERG: ERG (115-208) recombinantly expressed in E. coli (protein, UniProt P11308 115-208, looked up, fragment)
chain: PPNMTTNERRVIVPADPTLWSTDHVRQWLEWAVKEYGLPDVNILLFQNIDGKELCKMTKDDFQRLTPSYNADILLSHLHYLRETPLPHLTSDDV
  TM (melting temperature), ERG: 71.7±0.8 ºC
